Results from PMC1561584.

Molecular target: LexA-UNC-119 (C. elegans) (UniProt Q10658)
Experiment: two-hybrid; LexA baits and GAD preys in strain L40; data not shown

Sequence of UniProt Q10658 (Q10658 whole entry): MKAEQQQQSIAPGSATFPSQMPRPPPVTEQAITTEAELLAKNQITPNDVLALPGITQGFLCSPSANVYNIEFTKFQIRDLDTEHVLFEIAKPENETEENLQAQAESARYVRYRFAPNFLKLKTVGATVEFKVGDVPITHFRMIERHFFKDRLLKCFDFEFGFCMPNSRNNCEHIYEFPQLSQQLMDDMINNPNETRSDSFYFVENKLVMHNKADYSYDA

strength of interaction relative to ARL-3 FL (β-galactosidase activity) (fold of ARL-3 FL): 0.2
Substance: ARL-3Δ17 (domain or fragment)
